Experimental findings from US20150024957, “Methods and Devices for Detection and Measurement of Analytes” (THE UNIVERSITY OF TOLEDO, published 2015) are described below.

The target in the data set is Bovine serum albumin (BSA) (Bos taurus, UniProt P02769 P02769:25-607). Description: SPR; 400 nM BSA; minimal effect on response of aptamer sensor. The note with it: tags: Sigma Aldrich. Here is the method: Non-coated (i.e., no gold) SensiQ base sensors were custom modified with the developed gold based SPR sensing surfaces. Specifically, freshly prepared aptamer-immobilized gold substrates were coupled to the stripped sensors with index matching optical oil. This was followed by then loading of 100 μL 1 M ethanolamine (EA) at a flow rate of 20 μL/min to block the non-occupied MPA sites activated by the EDC/NHS, followed by an injection of 100 μL of 100 mM phosphoric acid (PPA) at 50 μL/min to remove the non-specific binding. The running buffer was 0.1 M pH 7.2 PBS. The sensor was first normalized with the buffer for 10 min, then the thrombin sample (25 μL) at concentrations of 5 nM, 25 nM, 50 nM, 250 nM 500 nM, 1000 nM, 2000 nM were loaded at 5 μL/min. Samples with BSA were all prepared with 400 nM BSA. All data was recorded at 290 s, 300 s, and 310 s after the sample injection and averaged. Sensor regeneration was performed by the injection of 100 μL PPA at 50 μL/min followed by washing with the running buffer.
Sequence of Bovine serum albumin (BSA) (P02769 25-607, one chain of several): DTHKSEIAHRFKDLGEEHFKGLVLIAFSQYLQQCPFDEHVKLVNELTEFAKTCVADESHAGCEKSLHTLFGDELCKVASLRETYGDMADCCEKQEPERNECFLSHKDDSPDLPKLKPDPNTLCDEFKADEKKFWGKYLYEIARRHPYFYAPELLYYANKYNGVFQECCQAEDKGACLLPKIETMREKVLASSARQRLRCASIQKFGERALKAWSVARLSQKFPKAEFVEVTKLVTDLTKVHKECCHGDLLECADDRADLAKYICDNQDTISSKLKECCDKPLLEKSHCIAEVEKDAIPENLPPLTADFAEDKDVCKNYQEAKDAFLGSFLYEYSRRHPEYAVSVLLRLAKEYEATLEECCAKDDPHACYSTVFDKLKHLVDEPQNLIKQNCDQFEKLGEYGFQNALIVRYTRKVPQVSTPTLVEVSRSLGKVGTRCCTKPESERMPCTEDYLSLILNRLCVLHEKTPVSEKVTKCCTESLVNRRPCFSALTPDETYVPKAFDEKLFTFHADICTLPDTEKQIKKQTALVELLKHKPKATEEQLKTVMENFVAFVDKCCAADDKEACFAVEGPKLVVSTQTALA
Adding BSA to the sample had minimal effect on the SPR response for the aptamer modified sensors, indicating a good selectivity of the sensor toward thrombin. This is in contrast to the bare Au sensor, which experienced a significant change between the thrombin samples with, and without, BSA. […]

As for CTATCAGTCCGTGGTAGGGCAGGTTGGGGTGACT (ssDNA, 5'-NH2-(CH2)6) [APT2 (34-mer thrombin aptamer)], the binding result is “no binding”.
Then GGTTGGTGTGGTTGG (ssDNA, 5'-NH2-(CH2)6) [APT1 (15-mer thrombin aptamer)], with “no binding”.
